Data on two substances can be found in publication PMC7673040.

Experiment [1] addresses ribosome-nascent chain complex bearing the first ~90 amino acids of pPL(ss), labelled with BODIPY-FL on the nascent chain (bovine). Description: other fluorescence titration; equilibrium FRET titration: SRP^TMR titrated into 1 nM RNC^BDP; donor emission at 517 nm; fit to Eq. (4); 25 °C, Assay buffer with 1 mg/mL BSA; no NAC.
The target is the same in experiment [2]. Description: other fluorescence titration; equilibrium FRET titrations of SRP^TMR into 1 nM RNC^BDP with unlabeled NAC premixed (0-400 nM for RNC(ss), 0-62.5 nM for RNC(ssmt)); global fit to the anti-cooperative co-binding model, Eq. (8); 25 °C, Assay buffer with 1 mg/mL BSA.
Experiment [3] addresses ribosome-nascent chain complex bearing the first ~90 amino acids of pPL(ssmt), labelled with BODIPY-FL on the nascent chain (bovine) (UniProt P01239). Described as above.
Experiment [4] has as its target signal recognition particle (SRP), human, labelled with Cy3B on SRP54 (C47) (human) (UniProt P61011). Description: stopped-flow FRET kinetics.
Experiment [5] has the same target. As to the kind of experiment: stopped-flow FRET kinetics; as a1 but on RNC(ssmt2) with HSW(RRL).
The target is the same in experiment [6]. Description: stopped-flow FRET kinetics; as a1 but on RNC(ssmt2); no NAC, no HSW.
The target is the same in experiment [7]. As to the kind of experiment: stopped-flow FRET kinetics; as a1 but on RNC(ssmt2) with 300 nM NAC.
Experiment [8] shares this target. Description: stopped-flow FRET kinetics; as a1 but on RNC(ssmt) with 300 nM NAC (saturating).
The target is the same in experiment [9]. Description: stopped-flow FRET kinetics; as a1 but SRP^Cy3B pre-incubated with 200 nM RNC(ssmt); no NAC, no HSW.
Experiment [10] shares this target. As to the kind of experiment: stopped-flow FRET kinetics; as a1, on RNC(ssmt) of different nascent chain lengths, no NAC; fit to a constant kon.
Experiment [11] shares this target. As to the kind of experiment: stopped-flow FRET kinetics; as a1 but on RNC(ssmt) with HSW(RRL) (high salt wash from 200 nM rabbit reticulocyte ribosome).
Experiment [12] shares this target. Description: stopped-flow FRET kinetics; as a1, on RNC(ssmt) of different nascent chain lengths, with 300 nM NAC; fit to a constant kon.
Experiment [13] has the same target. Description: stopped-flow FRET kinetics; as a1, on RNC(ss) of different nascent chain lengths, no NAC; kon against nascent chain length fit to Eq. (18).
For experiment [14] the target is unchanged. Description: stopped-flow FRET kinetics; as a1, on RNC(ss) of different nascent chain lengths, with 300 nM NAC; kon against nascent chain length fit to Eq. (18).

Consider “signal recognition particle (SRP), human, labelled with tetramethylrhodamine (TMR) at residue 12 of SRP54 (from UniProt P61011 1-504; P09132 1-144; P49458 1-86; P37108 1-136; Q9UHB9 1-627; O76094 1-671) (complex)”, for which the Kd was 0.44 nM in experiment [1] and 0.36 nM in experiment [2]. Besides, the KD for NAC-bound RNC (α•Kd,SRP) in experiment [2] was 2.4 nM; in experiment [3], 4.5 nM.
In the case of “soluble SRP receptor SRαβΔTM with the GTPase-deficient mutation SRα R458A, labelled with Atto647n (from UniProt P08240 1-638; Q9Y5M8 1-271) (complex)”, the kon in experiment [4] is 1e+06 M⁻¹ s⁻¹; in [9], 500000 M⁻¹ s⁻¹; in experiment [10] it was 570000 M⁻¹ s⁻¹; in experiment [12], 13000 M⁻¹ s⁻¹. Moreover, the fold lower kon than on RNC(ss) in [5] came to 100 fold; in [6], 20 fold; in [7], 100 fold; in experiment [8], 40 fold. Moreover, in experiment [11], the fold reduction of kon by HSW(RRL) was determined as 20 fold. Moreover, the results for the kon,max (fit of kon against nascent chain length) in [13] and in experiment [14] were 940000 M⁻¹ s⁻¹ and 1.3e+06 M⁻¹ s⁻¹, respectively. The figures for the kon,min (fit of kon against nascent chain length) in experiment [13] and in experiment [14] were 400000 M⁻¹ s⁻¹ and 22000 M⁻¹ s⁻¹, respectively.
